Experimental data: PMC3329491, “Insight on an Arginine Synthesis Metabolon from the Tetrameric Structure of Yeast Acetylglutamate Kinase” (PLoS ONE, 2012)

B1: truncated yNAGK spanning residues 58 to 356 (AAK domain, lacking the C-terminal DUF619 domain) (domain or fragment, Saccharomyces cerevisiae, UniProt Q01217 58-356, looked up)
chain: VSSTNGFSATRSTVIQLLNNISTKREVEQYLKYFTSVSQQQFAVIKVGGAIISDNLHELASCLAFLYHVGLYPIVLHGTGPQVNGRLEAQGIEPDYIDGIRITDEHTMAVVRKCFLEQNLKLVTALEQLGVRARPITSGVFTADYLDKDKYKLVGNIKSVTKEPIEASIKAGALPILTSLAETASGQMLNVNADVAAGELARVFEPLKIVYLNEKGGIINGSTGEKISMINLDEEYDDLMKQSWVKYGTKLKIREIKELLDYLPRSSSVAIINVQDLQKELFTDSGAGTMIRRGYKLVK
notes: A Se-Met-substituted form was used for phasing only (not deposited); also called truncated AAK; yNAGK lacking its C-terminal domain; source: E. coli BL21 (DE3), purified (HisTrap); not shown: MGH6 His-tag, N-terminal, kept
B2: complete mature yeast N-acetyl-L-glutamate kinase (yNAGK), residues 58-513 (enzyme, Saccharomyces cerevisiae, UniProt Q01217 58-513, looked up)
chain: VSSTNGFSATRSTVIQLLNNISTKREVEQYLKYFTSVSQQQFAVIKVGGAIISDNLHELASCLAFLYHVGLYPIVLHGTGPQVNGRLEAQGIEPDYIDGIRITDEHTMAVVRKCFLEQNLKLVTALEQLGVRARPITSGVFTADYLDKDKYKLVGNIKSVTKEPIEASIKAGALPILTSLAETASGQMLNVNADVAAGELARVFEPLKIVYLNEKGGIINGSTGEKISMINLDEEYDDLMKQSWVKYGTKLKIREIKELLDYLPRSSSVAIINVQDLQKELFTDSGAGTMIRRGYKLVKRSSIGEFPSADALRKALQRDAGISSGKESVASYLRYLENSDFVSYADEPLEAVAIVKKDTNVPTLDKFVCSDAAWLNNVTDNVFNVLRRDFPALQWVVSENDANIAWHFDKSQGSYLKGGKVLFWYGIDDINTISELVENFVKSCDTASTLNSSASS
modifications: for crystallization only: surface-exposed lysine residues reductively dimethylated
notes: N-acetyl-L-glutamate kinase of Saccharomyces cerevisiae, made by processing of the polyprotein precursor encoded by ARG5,6 (Uniprot Q01217); Amplified from pYB3 and inserted into pTrc99a; Methylated protein is stated for crystal NAGK1; Nothing says that the protein of the size exclusion run was methylated; also called complete yNAGK; complete mature yNAGK; source: E. coli BL21 (DE3), purified …

Columns and labels:
[1] = target: the molecule itself; assay: crystal structure; truncated yNAGK, space group P212121, four subunits in the asymmetric unit; with NAG, with NAG and arginine, or ligand-free; grown at 4°C, 50 mM Na acetate pH 4.6, 0.2 M Na-malonate, 2% PEG-8K
[2] = target: the molecule itself; assay: SEC; analytical size exclusion chromatography on Superdex 200 10/300, 24°C, 50 mM Hepes pH 7.5/0.25 M NaCl; elution volume against protein standards

Row | Protein | stoichiometry N [1] | stoichiometry N [2]
1 | B1 | 4 | –
2 | B2 | – | 4
